The text below walks through data of patent publication US20250066503A1, “CELL INJURY INDUCING THERAPEUTIC DRUG FOR USE IN CANCER THERAPY” (CHUGAI SEIYAKU KABUSHIKI KAISHA, priority 2016, published 2025).

Assay [1] has as its system cell lines derived from various cancer types (GPC3-expressing target cells). Kind of assay: TDCC activity by LDH release test with human PBMCs as effector cells. It counts as cell-based. The conditions noted are these: about 24 hours. The procedure:
TDCC activity of each test antibody was measured by the method described below. Human peripheral blood mononuclear cells (hereinafter referred to as human PBMCs) were used as effector cells and TDCC activity of each test antibody was measured as follows.
50 ml of peripheral blood was collected from a healthy person in Chugai Pharmaceutical Co. Ltd. using a syringe pre-loaded with 500 μl of 5000 units/5 ml heparin solution. The peripheral blood diluted two-fold with PBS was divided into four aliquots and added to Leucosep tubes for lymphocyte separation (GE Healthcare) which had been loaded with 15 ml of Ficoll-Paque PLUS and centrifuged in advance. […]
TDCC activity was assessed by an LDH release method (LDH Cytotoxicity Detection Kit, TAKARA). […] The absorbance at 490 to 492 nm was measured with a plate reader. The reference wavelength used was 600 to 620 nm, and the absorbance was subtracted from that at 490 to 492 nm. […]
Cytotoxic activity was determined based on this equation.
Here, A represents the absorbance of a mixture of target cells, effector cells, and antibody; B represents the absorbance of effector cells; C represents the absorbance of target cells; and D represents the absorbance of target cells with Triton X-100 added.
A general note: LDH in the medium is a marker of cell lysis.

For assay [2], the system named is LLC1/hGPC3 syngeneic tumor. Nature of the assay: In vivo drug efficacy, human CD3εδγ gene-modified mouse model. The arrangement: species or system human CD3εδγ gene-modified mice. The note with it: 5 mg/kg Day 11 and Day 14, compared to solvent group or anti-human GPC3, anti-mouse CTLA-4, PD-1, PD-L1 antibodies at 25 mg/kg. The procedure:
Methods called an NOD scid/T cell-injected model, a humanized NOG mouse model, and a human CD3εδγ gene-modified mouse model were used in the in vivo drug efficacy evaluation. Assay using an NOD scid/T cell-injected model was performed as follows. […] T cells expanded by culturing human PBMCs in vitro were injected into the NOD scid mice with confirmed tumor establishment. The mice were treated by administering bispecific antibody-38 and bispecific antibody-30, -31, -32, or -33. Assay using a humanized NOG mouse model was performed as follows. CD34-positive hematopoietic stem cells derived from umbilical cord blood were transplanted into NOG mice by tail vein injection. Human T cells are constantly supplied in the mice, which are called humanized NOG mice. The PC-10 cell line was transplanted into humanized NOG mice. The humanized NOG mice with confirmed establishment of PC-10 tumor were treated by administering antibody-38. Assay using a human CD3εδγ gene-modified mouse model was performed as follows. Cells of mouse-derived cell line forced to express human GPC3 were transplanted into a human CD3εδγ gene-modified mouse model, which had been prepared according to Reference Example 10. The human CD3εδγ gene-modified mice with confirmed tumor establishment were treated by administering antibody-38. […]

B1: antibody-38: anti-human CD3ε chain and anti-human GPC3 bispecific antibody; H chains SEQ ID NO: 385 and 402, common L chains SEQ ID NO: 410 (antibody)
heavy 1: QVQLVQSGAEVKKPGASVTVSCKASGYTFTDYEMHWIRQPPGEGLEWIGAIDGPTPDTAYSEKFKGRVTLTADKSTSTAYMELSSLTSEDTAVYYCTRFYSYTYWGQGTLVTVSSASTKGPSVFPLAPCSRSTSESTAALGCLVKDYFPEPVTVSWNSGALTSGVHTFPAVLQSSGLYSLSSVVTVPSSSLGTQTYTCNVDHKPSNTKVDKRVESKYGPPCPPCPAPEFRGGPKVFLFPPKPKDTLMISRTPEVTCVVVDVSQEDPEVQFNWYVDGVEVHNAKTKPREEQFASTYRVVSVLTVLHQDWLNGKEYKCKVSNKGLPSSIEKTISKAKGQPREPQVYTLPPSQEEMTKNQVSLTCLVKGFYPSDIAVEWESNGQPENNYKTTPPVLDSDGSFFLYSKLTVDKSRWQEGNVFSCSVMHEALHNHYTQESLSLSP
heavy 2: QVQLVESGGGVVQPGGSLRLSCAASGFTFSNAWMHWVRQAPGKGLEWVAQIKDKSQNYATYVAESVKGRFTISRADSKNSIYLQMNSLKTEDTAVYYCRYVHYAAGYGVDIWGQGTTVTVSSASTKGPSVFPLAPCSRSTSESTAALGCLVKDYFPEPVTVSWNSGALTSGVHTFPAVLQSSGLYSLSSVVTVPSSSLGTKTYTCNVDHKPSNTKVDKRVESKYGPPCPPCPAPEFRGGPKVFLFPPKPKDTLMISRTPEVTCVVVDVSQEDPEVQFNWYVDGVEVHNAKTKPREEQFASTYRVVSVLTVLHQDWLNGKEYKCKVSNKGLPSSIEKTISKAKGQPREPQVYTLPPSQKEMTKNQVSLTCLVKGFYPSDIAVEWESNGQPENNYKTTPPVLDSDGSFFLYSKLTVDKSRWQEGNVFSCSVMHEALHNHYTQKSLSLSP
light: DIVMTQSPLSLPVTPGEPASISCRSSQPLVHSNRNTYLHWYQQKPGQAPRLLIYKVSNRFSGVPDRFSGSGSGTDFTLKISRVEAEDVGVYYCGQGTQVPYTFGQGTKLEIKRTVAAPSVFIFPPSDEQLKSGTASVVCLLNNFYPREAKVQWKVDNALQSGNSQESVTEQDSKDSTYSLSSTLTLSKADYEKHKVYACEVTHQGLSSPVTKSFNRGEC
modifications: An artificially generated sequence
Take B1: the “TDCC activity (LDH release)” value in assay [1] was “clearly observed”. In addition, in assay [2], the anti-tumor effect result was “evident anti-tumor effect”.
